Measured values as given in PMC8260448.

Target: thrombin (UniProt P00734;P00734 315-363;364-622)
Assay: fluorescence polarization

GGTTGGTGTGGTTGG (structured_DNA, T3 replaced by 5-ethynyl-dU clicked to inactivated N-acyl sulfonamide 2b) [TBA(3)-2b] gave a Kd of 395 nM.
